From paper PMC3912051, “The B-Subdomain of the Xenopus laevis XFIN KRAB-AB Domain Is Responsible for Its Weaker Transcriptional Repressor Activity Compared to Human ZNF10/Kox1” (PLoS ONE, 2014) come the findings set out here.

The assay addresses TRIM28 (endogenous human TRIM28 protein) (human (endogenous in HeLa), UniProt Q13263 1-835). Kind of assay: cell-based or functional assay.

TRIM28 (endogenous human TRIM28 protein), sequence (Q13263 whole entry): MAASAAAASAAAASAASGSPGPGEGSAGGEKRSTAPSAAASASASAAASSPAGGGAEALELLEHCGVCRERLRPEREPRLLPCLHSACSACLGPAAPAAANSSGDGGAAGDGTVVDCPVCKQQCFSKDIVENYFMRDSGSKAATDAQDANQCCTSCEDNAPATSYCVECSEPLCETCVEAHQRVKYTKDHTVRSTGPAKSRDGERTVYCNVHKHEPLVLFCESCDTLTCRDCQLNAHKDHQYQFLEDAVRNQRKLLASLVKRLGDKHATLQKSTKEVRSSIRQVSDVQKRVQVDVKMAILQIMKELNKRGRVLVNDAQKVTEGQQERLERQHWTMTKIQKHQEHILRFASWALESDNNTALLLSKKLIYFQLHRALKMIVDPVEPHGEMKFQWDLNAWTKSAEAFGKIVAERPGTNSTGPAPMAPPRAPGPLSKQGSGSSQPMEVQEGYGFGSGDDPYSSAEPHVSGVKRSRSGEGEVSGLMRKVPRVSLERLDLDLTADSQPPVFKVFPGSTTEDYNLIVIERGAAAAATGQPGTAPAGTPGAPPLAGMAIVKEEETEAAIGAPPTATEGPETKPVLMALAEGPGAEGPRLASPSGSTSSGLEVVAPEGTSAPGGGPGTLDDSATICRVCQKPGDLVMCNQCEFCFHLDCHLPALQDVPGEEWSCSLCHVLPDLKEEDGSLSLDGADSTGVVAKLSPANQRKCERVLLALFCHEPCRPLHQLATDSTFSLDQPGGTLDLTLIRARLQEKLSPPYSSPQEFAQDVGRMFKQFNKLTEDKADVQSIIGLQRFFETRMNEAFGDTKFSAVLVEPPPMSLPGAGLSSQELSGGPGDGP

B1: GST-ZNF10-KRAB-AB (KRAB-AB domain of human ZNF10/Kox1 fused to glutathione S-transferase) (domain or fragment)
chain: not shown
Regarding B1, the “fold repression of a Gal4-site luciferase reporter by Gal4-ZNF10-KRAB-AB in EPC fish cells with co-transfected human TRIM28 (negligible without it)” value is approximately 2 fold.
